Where two headings read alike, the source gives them in different places. No end group written: not given here.
How the values were obtained:
[1] = target: T1, GP IIb IIIa (Homo sapiens, UniProt P05106+P08514); experiment: Binding to immobilized GP IIb IIIa affinity resin, elution with EDTA; conditions: eluted by EDTA
T1 construct: GP IIb IIIa was purified from outdated human platelets as previously described; from tissue; host or cells: outdated human platelets
Method: Immediately before coupling, approximately 10 ml Affi-Prep 10 resin was washed with 300 ml ice cold 50 mM sodium acetate, pH 4.5 in a coarse sintered glass funnel. After removing excess buffer, approximately 4 ml washed resin was transferred to a 15 ml conical tube containing 8 mg purified GP IIb IIIa which had been previously dialyzed into 0.1M sodium bicarbonate, 2 mM CaCl2, pH 8.0.
The coupling was carried out on a rocking platform at room temperature for 2 hours, and then overnight at 4° C. Excess reactive groups on the resin were blocked by incubation with 0.1M ethanolamine, 2 mM CaCl2, pH 9.0 for 1 hour at room temperature. The resin was then transferred to a sintered glass funnel, and washed in an alternating fashion with 20 ml aliquots of 0.1M sodium acetate, pH 4.5, and 0.1M Tris, pH 7.5, each containing 0.5M NaCl and 2 mM CaCl2, to remove any non-covalently bound material. A total of approximately 300 ml of each buffer was used in this cycle washing. Finally, the coupled GP IIb IIIa resin was washed with 100 ml 50 mM Tris, pH 7.5 containing 2 mM CaCl2 and stored at 4° C. prior to use.
The affinity column (ca. 4 ml of resin) was equilibrated in 50 mM Tris, pH 7.5 containing 2 mM CaCl2. The neutralized TFA pool was loaded onto the column at a flow rate of 0.5 ml/min and 25 ml fractions were collected. […]

[2] = test system: human platelet rich plasma (PRP)
Method: The Fg/GP IIb IIIa ELISA was performed as previously described (Dennis, M. S., Henzel, W. J., Pitti, R. M., Lipari, M. T., Napier, M. A., Deisher, T. A., Bunting S. and Lazarus, R. A. (1990) Proc. Natl. Acad. Sci. USA, 87, 2471-2475; and Seymour, J. L., Henzel, W. J., Nevins, B., Stults, J. T., and Lazarus, R. A. (1990) J. Biol. Chem. 265, 10143-10147).Platelet aggregation assays were carried out in human platelet rich plasma (PRP) as reported earlier (Dennis, M. S., Henzel, W. J., Pitti, R. M., Lipari, M. T., Napier, M. A., Deisher, T. A., Bunting, S. and Lazarus, R. A. (1990) Proc. Natl. Acad. Sci. USA, 87, 2471-2475; and Seymour, J. L., Henzel, W. J., nevins, B., Stults, J. T., and Lazarus, R. A. (1990) J. Biol. Chem. 265, 10143-10147).
Platelet aggregation assays were performed in PRP as follows:
50 ml whole human blood (9 parts) was drawn on 3.8% Na citrate (1 part) from a donor who had not taken any aspirin or related medication for at least two weeks. Blood was centrifuged at 160×g for 10 minutes at 22° C., allowed to stand for five minutes, and the PRP was decanted. Platelet poor plasma (PPP) was prepared from the remaining blood by centrifugation at 2000×g for 25 minutes at 22° C. PRP platelet count was measured on a Baker 9000 hematology analyzer and diluted to about 300,000 platelets/μL using PPP.
Light transmittance was recorded after the addition of ADP (8 μM), which initiated platelet aggregation. The inhibition of platelet aggregation was measured at the maximum aggregation response.

[3] = target: T1, GP IIb IIIa; experiment: Fg/GP IIb IIIa solid phase ELISA (inhibition of GP IIb IIIa binding to immobilized fibrinogen); conditions: for activity in GP IIb IIIa /Fg ELISA compared with decorsin purified from whole leech homogenate: specific activity (IC50); for half maximal dilution / total units / specific activity (U/mg): Table III; for half maximal dilution: dilution giving half maximal response in ELISA, fractions from 310 g P. ornata; for total units: half maximal dilution multiplied by total volume in ml; for specific activity (U/mg): total units per mg total protein
Method: The Fg/GP IIb IIIa ELISA was performed by a modification of the method of Nachman and Leung (Nachman, R. L. et al. (1982) J. Clin. Invest. 69, 263-269) according to the following protocol, with washes of phosphate buffered saline containing 0.01% Tween 20 between each step:
Microtiter plates were coated with purified human fibrinogen (10 μg/ml), washed, and then blocked with TACTS, 0.5% BSA. The plates were washed and samples to be evaluated were added, followed immediately by addition of purified GP IIb IIIa (40 μg/ml) in TACTS, 0.5% BSA (Calbiochem). After a 1 hr incubation, the plate was washed and AP3 (1 μg/ml) was added.
Following a 1 hr incubation and another wash, goat anti-mouse IgG conjugated to horseradish peroxidase was added. A final wash was performed, and developing reagent buffer (0.66 mg/ml o-phenylenediamine dihydrochloride, 0.012% H2 O2, 22 mM citrate, 50 mM phosphate, pH 5.0) added; plates were incubated until color developed.
The reaction was stopped with 1N H2 SO4 and the absorbance at 492 nm measured. A four parameter fit (Marquardt, D. W. (1963) J. Soc. Indust. Appl. Math 11, 431-441) was used to estimate the half maximal inhibition concentration.

[4] = target: glycoprotein IIb IIIa (GP IIb IIIa), purified from outdated human platelets (human) (UniProt P08514); experiment: GP IIb IIIa/Fg ELISA, IC50 against the reference GRGDV
[5] = target: glycoprotein IIb IIIa (GP IIb IIIa), purified from outdated human platelets (human) (UniProt P08514); experiment: Fg/GP IIb IIIa solid phase ELISA, inhibition of GP IIb IIIa binding to immobilized fibrinogen
[6] = target: glycoprotein IIb IIIa (GP IIb IIIa), purified from outdated human platelets (human) (UniProt P08514); experiment: Fg/GP IIb-IIIa solid phase ELISA
[7] = target: GP IIb IIIa on human platelets (platelet rich plasma) (human) (UniProt P08514)
[8] = target: glycoprotein IIb IIIa (GP IIb IIIa), purified from outdated human platelets (human) (UniProt P08514); experiment: Fg/GP IIb IIIa ELISA, dilution of the 0.018 mg/ml fraction giving a half maximal response
[9] = target: glycoprotein IIb IIIa (GP IIb IIIa), purified from outdated human platelets (human) (UniProt P08514); experiment: Fg/GP IIb IIIa ELISA units per mg protein
[10] = target: glycoprotein IIb IIIa (GP IIb IIIa), purified from outdated human platelets (human) (UniProt P08514); experiment: Fg/GP IIb IIIa ELISA, dilution of the 0.024 mg/ml fraction giving a half maximal response
[11] = target: glycoprotein IIb IIIa (GP IIb IIIa), purified from outdated human platelets (human) (UniProt P08514); experiment: Fg/GP IIb IIIa ELISA, dilution of the 0.113 mg/ml fraction giving a half maximal response
[12] = target: glycoprotein IIb IIIa (GP IIb IIIa), purified from outdated human platelets (human) (UniProt P08514); experiment: Fg/GP IIb IIIa ELISA, dilution of the 0.020 mg/ml fraction giving a half maximal response
[13] = target: glycoprotein IIb IIIa (GP IIb IIIa), purified from outdated human platelets (human) (UniProt P08514); experiment: Fg/GP IIb IIIa ELISA, dilution of the 0.085 mg/ml fraction giving a half maximal response
[14] = target: T2, GP IIb IIIa on human platelets (platelet rich plasma) (human, UniProt P08514); experiment: cell-based or functional assay
[15] = target: T2, GP IIb IIIa on human platelets …; experiment: cell-based or functional assay; remark: listed apart in the source
[16] = four parameter fit, read-out: IC50 in GP IIb IIIa /Fg ELISA
[17] = Table VI, n in parenthesis, read-out: IC50 (nM) Fg/GP IIb-IIIa solid phase ELISA

With “APRLPQCQGDDQEKCLCNKDECPPGQCRFPRGDADPYCE [decorsin, 39-amino acid RGD protein from the leech Macrobdella decora, GP IIb IIIa antagonist]” the “binding to GP IIb IIIa receptor (words)” value [1] was “bound”, the “binding to GP IIb IIIa receptor (words)” value ([1]; listed as Decorsin) was “bind” and the “activity in platelet aggregation assay compared with native decorsin” value [2] was “essentially identical”. For the same molecule, the IC50 [3, 16] was ~1.5 nM, the “potency relative to pentapeptide GRGDV in GP IIb IIIa /Fg ELISA” value ([3]; ratio of IC50 values) was “about 27 times” and the “activity in GP IIb IIIa /Fg ELISA compared with decorsin purified from whole leech homogenate” value [3] was “identical”. The “activity in GP IIb IIIa /Fg ELISA compared with decorsin purified from whole leech homogenate” value ([3]; listed as synthetic native decorsin) was “essentially identical”.

For “GRGDV [GRGDV, reference compound] [listing 1 of 2 here]”, the IC50 [3, 17] was 47.5 ± 6.4 nM and the IC50 [3, 16] was ~40 nM.

“GRGDV [GRGDV, reference compound] [listing 2 of 2 here]” showed an IC50 ([2]; read-out: IC50 in platelet aggregation assay, ADP (8 μM) induced, human PRP) of ~75000 nM.

For “IPQCRDVKESGQPNDKCRCNGKPCTVGKCTIARGDDNDKCT [ornatin A2, ornatin isoform isolated from P. ornata]”, the “activity of C18 rp HPLC peaks in Fg/GP IIb IIIa ELISA” value ([3]; FIG. 8 inset, rechromatography of ornatin A) was “active”, the half maximal dilution [3] was 809 and the total units [3] was 405. The “specific activity (U/mg)” value [3] was 44505 U/mg and the IC50 [3, 17] was 5.1 nM.

“IYVRPTKDELLYCGEFRELGQPDKKCRC [ornatin D, ornatin isoform from P. ornata]” was tested, and the half maximal dilution [3] was 1032, the total units [3] was 516 and the “specific activity (U/mg)” value [3] was 49615 U/mg. The IC50 [3, 17] was 3.2 ± 0.35 nM.

With “IYVRPTKDELLYCGEFRELGQPDKKCRCDGKPCTVGRCKFARGDADDKCTSA [ornatin C, ornatin isoform isolated from P. ornata]” the half maximal dilution [3] was 4422, the total units [3] was 2211 and the “specific activity (U/mg)” value [3] was 39060 U/mg. For the same molecule, the IC50 [3, 17] was 4.9 ± 0.5 nM.

With “IYVRPTKDELLYCGEFRELGQPDKKCRCDGKPCTVGRCNFARGDNDDKCI [ornatin E, ornatin isoform isolated from P. ornata]” the half maximal dilution [3] was 3610, the total units [3] was 1805 and the “specific activity (U/mg)” value [3] was 42370 U/mg. The IC50 [3, 17] was 4.5 ± 0.77 nM.

“IYVRPTNDELNYCGDFRELGQPDKKCRCDGKPCTVGRCKFARGDNDDKCISA [ornatin B, ornatin isoform isolated from P. ornata]” was tested, and the half maximal dilution [3] was 1215, the total units [3] was 608 and the “specific activity (U/mg)” value [3] was 50670 U/mg. The IC50 [3, 17] was 3.5 ± 0.25 nM.

With “N-3 decorsin: isoform which lacks the first three amino terminal residues of decorsin (LPQCQGDDQEKCLCNKDECPPGQCRFPRGDADPYCE)” the “activity in platelet aggregation assay compared with native decorsin” value [2] was “Comparable activities” and the IC50 [3, 16] was ~1.5 nM.

Molecule decorsin has a times more potent than GRGDV [4] of 27 fold and an IC50 [5] of 1.5 nM.

Work on kistrin (from UniProt P30403) yielded an IC50 [6] of 4.6 nM and an IC50 (nM), human platelet aggregation assay (ADP activation) [7] of 137 nM.

Molecule kistrin [reference compound] has an IC50 ([2]; read-out: IC50 (nM) human platelet aggregation assay, Table VI, ADP activation, n in parenthesis) of 137 nM and an IC50 [3, 17] of 4.6 ± 0.06 nM.

ornatin A2 was tested, and the half maximal dilution [8] was 809, the IC50 [6] was 5.1 nM and the specific activity (U/mg) [9] was 44500 U/mg.

ornatin B showed a half maximal dilution [10] of 1220, an IC50 [6] of 3.5 nM and a specific activity (U/mg) [9] of 50700 U/mg.

For ornatin C, the IC50 [6] was 4.9 nM, the half maximal dilution [11] was 4420 and the specific activity (U/mg) [9] was 39100 U/mg.

ornatin D gave a half maximal dilution [12] of 1030, an IC50 [6] of 3.2 nM and a specific activity (U/mg) [9] of 49600 U/mg.

In the case of ornatin E, the half maximal dilution [13] is reported as 3610, the IC50 [6] is reported as 4.5 nM and the specific activity (U/mg) [9] is reported as 42400 U/mg.

B1: decorsin (other)
chain: APRLPQCQGDDQEKCLCNKDECPPGQCRFPRGDADPYCE
B1 was tested, and the “IC50, inhibition of ADP-induced platelet aggregation in human platelet rich plasma” value [14] was ~300 nM and the “IC50 (nM), human platelet aggregation assay (ADP activation)” value (“IC50 (nM)” for short) [15] was 314 nM.

B2: GRGDV (peptide)
peptide: GRGDV
With B2 the “IC50, inhibition of ADP-induced platelet aggregation in human platelet rich plasma” value [14] was ~75000 nM, the IC50 [6] was 47.5 nM and the IC50 [5] was 40 nM.

B3: ornatin E (other)
chain: IYVRPTKDELLYCGEFRELGQPDKKCRCDGKPCTVGRCNFARGDNDDKCI
For B3, the “IC50 (nM)” value [15] was 516 nM.

B4: ornatin C (other)
chain: IYVRPTKDELLYCGEFRELGQPDKKCRCDGKPCTVGRCKFARGDADDKCTSA
In the case of B4, the “IC50 (nM)” value [15] is reported as 324 nM.
